# Test results reported in patent US20200087410A1 (GLYCOTOPE, published 2020).
# B1: humanized anti-CD40 antibody variant VH10/VL2 (as screened in Example 3) (antibody, V domains shown)
# VH: EVQLVQSGAEVKKPGASVKISCKTSGYTFTEYIMHWVKQSPGKSLEWIGGIIPNNGGTSYNQKFKDRVTMTVDKSISTGYMELSRLRSDDTAVYYCTRREVYGRNYYALDYWGQGTLVTVSS
# VL: DIQMTQSPSSLSASVGDRVTITCSASQGINNYLNWYQQKPGKAPKLLIYYTSSLHSGVPSRFSGSGSGTDYTFTISSLQPEDIATYYCQQYSNLPYTFGQGTKLEIKR
# notes: Human gamma1 or gamma2 heavy constant region and human kappa constant region; also called hLob
# Target: T1, CD40 (immobilized CD40, antigen ELISA / surface plasmon resonance) (human, UniProt P25942 21-193, limits assumed)
# T1 construct: also called TNFRSF5; TNF receptor super family member 5
# T1 sequence (P25942 21-193 limits assumed): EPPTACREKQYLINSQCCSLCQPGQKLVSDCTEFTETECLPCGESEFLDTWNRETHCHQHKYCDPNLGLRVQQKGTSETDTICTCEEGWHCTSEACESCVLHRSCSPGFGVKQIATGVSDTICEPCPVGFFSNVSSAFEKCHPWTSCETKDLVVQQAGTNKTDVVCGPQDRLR
# Assay: immobilized CD40; screen by antigen ELISA and surface plasmon resonance (method of the KD not named)
# Method: Following expression of the different constructs in NM-H9D8 and NM-H9D8-E6Q12 cells, the titer of the humanized antibody variants was determined and their concentration adjusted. Then, the humanized antibodies were screened in an antigen ELISA and via surface plasmon resonance.
binder,measurement,value
B1,Kd,25 nM
